{
  "source": "patent US20140134169A1",
  "about": "“Methods of Treating Ovarian Cancer with Dll4 Antagonists” (Regeneron Pharmaceuticals, Inc., priority 2012, published 2014)",
  "type_in_all_cases": "in vivo",
  "key": {"[1]": {"tested_on": "Hey1 gene expression in Colo205 human colorectal tumor cells", "test": "Hey1 gene expression in Colo205 tumors in humanized Dll4 SCID mice (microarray)", "description": "The effect of anti-hDll4 antibody on differential gene expression in tumors was studied in humanized Dll4 SCID mice implanted with human Colo205 colorectal tumor cells. Briefly, Male and female humanized Dll4 SCID mice were subcutaneously implanted with 2×10^6 Colo205 cells per mouse. When the tumors reached ˜150 mm^3, mice (4 animals per group) were treated with a single dose of REGN421 at 0.5, 5 or 15 mg/kg, or of hFc control at 15 mg/kg. The tumors were excised at 5 hrs, 10 hrs, 24 hrs, 72 hrs and 7 days after the treatment and stored in RNA later stabilization reagent (Qiagen). Tumor RNA was purified using the RNeasy® Midi Kit (Qiagen). Tissue was homogenized in lysis buffer containing […] in a mixer mill, loaded onto the columns and unbound contaminants washed through. DNase I digestion was performed on the column and RNA was eluted in RNase-free water. Cyanine 3 (Cy3)-CTP was incorporated into amplified cRNA from 500 ng of total RNA using the Quick Amp™ RNA Amplification Kit (Agilent Technologies). Cy3-labeled cRNA from each sample was then hybridized to a custom array covering both the mouse and human transcriptome. The hybridization and wash of the arrays were performed according to the manufacture's protocol and arrays were scanned on an Agilent Microarray scanner. The data were extracted from scanned array images using the Agilent Feature Extraction Software 9.5. […]"}, "human HCT116 tumor cells": {"tested_on": "human HCT116 tumor cells", "test": "Growth of human HCT116 tumors in humanized Dll4 SCID mice (irinotecan study)", "conditions": "REGN421 2 mg/kg sc (6 mg/kg total)", "description": "Each mouse was implanted subcutaneously (sc) with 5×10^6 human HCT116 tumor cells. […] The mice were then treated with hFc, REGN421, irinotecan or combination of REGN421 and irinotecan. A total of 30 mice were divided into 6 groups (n=5 per cohort). The first group was treated sc with hFc at 2 mg/kg; the second group was treated sc with REGN421 at 2 mg/kg; the third and fourth groups were treated ip with irinotecan at 7.5 and 25 mg/kg, respectively; the fifth group was treated sc with REGN421 at 2 mg/kg and ip with irinotecan at 7.5 mg/kg; and the sixth group was treated sc with REGN421 at 2 mg/kg and ip with irinotecan at 25 mg/kg. REGN421 was administered every 3-4 days starting on day 15 and mice received three doses total. Irinotecan was administered every 3-4 days starting on day 15 and mice received three doses total.\nTo assess the effects of REGN421 and irinotecan as single agents or in combination treatments, the changes in tumor size (volume) are measured, starting three days before the initial REGN421 treatment, and then on the day of each agent treatment (days 15, 19, 22) and thereafter every 3-4 days until tumors reach ˜600 mm^3 in size. In vivo tumor size is calculated using the formula (length×width^2)/2."}, "[2]": {"tested_on": "human VM-Cub1 tumor cells (bladder carcinoma cells)", "test": "Growth of human VM-Cub1 tumors implanted in humanized Dll4 SCID mice", "conditions": "for TGI(%): day 32; for TGD: to 600 mm3", "description": "The humanized Dll4 SCID mouse was made by replacing the entire extracellular domain of the mouse Dll4 gene with the corresponding extracellular region of the human Dll4 gene (7 kb) in embryonic stem (ES) cells. Homozygous hDll4 mice were generated and bred into SCID background.\nA total of 45 mice were divided into nine groups (n=5 per cohort). The first group was treated subcutaneously (sc) with hFc at 2 mg/kg; the second and third groups were treated sc with REGN421 at 0.5 and 2 mg/kg, respectively; the fourth and fifth groups were treated intraperitoneally (ip) with cisplatin at 0.5 and 2 mg/kg, respectively; the sixth group was treated sc with REGN421 at 0.5 mg/kg and ip with cisplatin at 0.5 mg/kg; the seventh group was treated sc with REGN421 at 0.5 mg/kg and ip with cisplatin at 2 mg/kg; the eighth group was treated sc with REGN421 at 2 mg/kg and ip with cisplatin at 0.5 mg/kg; and the ninth group was treated sc with REGN421 at 2 mg/kg and ip with cisplatin at 2 mg/kg. REGN421 was administered every 3-4 days starting on day 14 and mice received three doses total. Cisplatin was administered every 24 hours starting on day 14; mice received four doses total.\nTo assess the effects of REGN421 and cisplatin as single agents or in combination treatments, the changes in tumor size were recorded. Tumor growth was measured three days before the initial REGN421 treatment, on the day of each REGN421 treatment (days 14, 17 and 21) and thereafter every 3-4 days until tumors reached ˜600 mm3 in size. In vivo tumor size was calculated using the formula (length×width2)/2 (FIG. 1 and Table 1).\nTumor Growth Inhibition, TGI, was determined by calculating the difference in tumor size for treated (T) versus vehicle control (C) tumor at the day the control cohort was euthanized (i.e., at day 32); TGI=[1−(Tfinal−Tinitial)/(Cfinal−Cinitial)]×100.\nTumor growth delay, TGD, was assessed as the difference in days between treated (T) versus control (C) tumors when each cohort reached a specified tumor size. The predetermined tumor size for this experiment was 600 mm^3."}},
  "data": [
    {"molecule": "REGN421 (antibody, V domains shown) VH: QVQLVESGGGVVQPGRSLRLSCAASGFTFSSYGMHWVRQAPGKGLEWVSFLWYDGTNKNYVESVKGRFTISRDNSKNMLYLEMNSLRAEDTAVYYCARDHDFRSGYEGWFDPWGQGTLVTVSS VL: EIVLTQSPATLSLSPGERATLSCRASQSVSSYLAWYQQKPGQAPRLLIYDASNRATGIPARFSGSGSGTDFTLTISSLEPEDFAVYYCQHRSNWPPTFGGGTKVEIK", "values": [
      {"measurement": "Hey1 mRNA levels compared to control hFc-treated mice", "setting": "[1]; single dose 0.5 mg/kg (lowest dose)", "result": "No significant decrease"},
      {"measurement": "Hey1 mRNA levels compared to control hFc-treated mice", "setting": "[1]; single dose REGN421, starting at 10 hours, most significantly at 72 hours and 7 days post-treatment", "result": "decreased"},
      {"measurement": "TGD", "setting": "human HCT116 tumor cells", "result": 9, "unit": "days"},
      {"measurement": "TGI(%) at Day 39", "setting": "human HCT116 tumor cells", "result": 81.3, "unit": "%"},
      {"measurement": "Euthanized", "setting": "[2]; REGN421 0.5 mg/kg/dose sc x3", "result": 32, "unit": "days"},
      {"measurement": "TGI(%)", "setting": "[2]; REGN421 0.5 mg/kg/dose sc x3", "result": "−13.7", "unit": "%"},
      {"measurement": "TGD", "setting": "[2]; REGN421 0.5 mg/kg/dose sc x3", "result": 0, "unit": "days"},
      {"measurement": "Euthanized", "setting": "[2]; REGN421 2 mg/kg/dose sc x3", "result": 44, "unit": "days"},
      {"measurement": "TGI(%)", "setting": "[2]; REGN421 2 mg/kg/dose sc x3", "result": 83.1, "unit": "%"},
      {"measurement": "TGD", "setting": "[2]; REGN421 2 mg/kg/dose sc x3", "result": 12, "unit": "days"},
      {"measurement": "reduction in tumor growth", "setting": "[2]; REGN421 alone, dose not stated", "result": 54, "unit": "%"}
    ]}
  ]
}
